Assay results as given in publication PMC3698177.

Target: phosphorylated β-catenin (UniProt P35222)
Assay: co-immunoprecipitation (IP-GFP), western blot densitometry
Conditions: Triton-X100 cell extracts containing 50 mM NaF; SW480 extract as source of β-catenin; parent: 1

Sequence of UniProt P35222 (P35222 whole entry): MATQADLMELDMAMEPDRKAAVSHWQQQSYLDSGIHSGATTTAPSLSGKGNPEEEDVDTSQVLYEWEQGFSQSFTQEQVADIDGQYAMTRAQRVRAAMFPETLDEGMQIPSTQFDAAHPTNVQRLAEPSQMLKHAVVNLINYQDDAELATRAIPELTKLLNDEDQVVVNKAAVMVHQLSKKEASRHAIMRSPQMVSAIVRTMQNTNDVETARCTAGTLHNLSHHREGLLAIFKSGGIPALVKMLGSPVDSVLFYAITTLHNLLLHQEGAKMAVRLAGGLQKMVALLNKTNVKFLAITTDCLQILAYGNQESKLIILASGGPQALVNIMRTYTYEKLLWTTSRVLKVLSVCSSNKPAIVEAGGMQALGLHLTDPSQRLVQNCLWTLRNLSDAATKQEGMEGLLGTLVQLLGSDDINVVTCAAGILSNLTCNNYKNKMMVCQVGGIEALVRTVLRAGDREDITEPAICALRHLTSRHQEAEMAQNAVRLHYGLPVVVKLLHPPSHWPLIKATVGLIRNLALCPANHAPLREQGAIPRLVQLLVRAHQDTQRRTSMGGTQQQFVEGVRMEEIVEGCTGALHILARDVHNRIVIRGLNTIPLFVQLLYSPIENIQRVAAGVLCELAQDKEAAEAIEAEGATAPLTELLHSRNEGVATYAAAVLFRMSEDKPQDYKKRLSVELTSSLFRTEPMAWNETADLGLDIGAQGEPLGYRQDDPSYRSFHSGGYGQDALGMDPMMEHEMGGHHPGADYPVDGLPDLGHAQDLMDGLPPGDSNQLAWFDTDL

- other: Ratio Phospho/total: 0.9
Substance: yAPC1289 (from UniProt P25054) 20R1µ
